Results taken from paper PMC6001950.

Biological target: human S100A9 protein (human) (UniProt P06702)
Experiment: other fluorescence titration; intrinsic tryptophan fluorescence of 2 uM S100A9; S100A12 added at 0.4-7 uM; excitation 295 nm, emission read at 345 nm; one binding site model

Kd: 1300 nM
B1: human S100A12 protein (natural protein)
chain: MTKLEEHLEGIVNIFHQYSVRKGHFDTLSKGELKQLLTKELANTIKNIKDKAVIDEIFQGLDANQDEQVDFQEFISLVAIALKAAHYHTHKE
